Patent US20180155411A1

Experiments:
[1] = target: VP7 of rotavirus strain 116E (G9P[11]) (human rotavirus), Q99706; assay: cell-based or functional assay
[2] = target: VP4 of rotavirus strain 116E (G9P[11]) (human rotavirus), Q99706; assay: cell-based or functional assay
Sequence of VP4 of rotavirus strain 116E (G9P[11]) (human rotavirus), Q99706 (Q99706 22-377): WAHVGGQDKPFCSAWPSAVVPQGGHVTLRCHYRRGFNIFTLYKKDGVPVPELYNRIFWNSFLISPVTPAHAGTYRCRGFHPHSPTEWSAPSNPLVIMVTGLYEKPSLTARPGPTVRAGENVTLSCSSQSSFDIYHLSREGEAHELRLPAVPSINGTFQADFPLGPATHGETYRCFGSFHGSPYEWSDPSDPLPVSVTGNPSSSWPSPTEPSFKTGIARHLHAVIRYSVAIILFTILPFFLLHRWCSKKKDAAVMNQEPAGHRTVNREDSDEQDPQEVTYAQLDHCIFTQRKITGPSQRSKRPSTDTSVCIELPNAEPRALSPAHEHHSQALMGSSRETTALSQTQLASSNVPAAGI

Sequence of VP7 of rotavirus strain 116E (G9P[11]) (human rotavirus), Q99706 (Q99706 22-377): as above

B1: mAb #57 (antibody, V domains shown)
VH: QVQLVESGGGVVQSGRSLRLSCAASGFTFRSYAMHWVRQAPGKGLEWVADLSLDGSHKYADSVRGRFTISSDSSKNTVYLQMNSLRTEDTAIYYCARAAGIMVAGTFLTEFYFDYWGQGTLVTVSS
VL: QSVLTQPPSVSGAPGQRVTISCTGSSSNIGAGYDVHWYQQLPGTAPKLLIYGNIKRPSGVPDRFSGSKSGTSASLAITGLQTEDEADYYCQSYDSSLSAYYVFGTGTRVTVL
in vitro neutralization [1]: > 625 ng/mL

B2: mAb #49 (antibody, V domains shown)
VH: DVQLVESGGGLVQPGGSVRLSCSASRFTFSNYAMYWVRQAPGKGLEYVSSISSDGGSTYYAESVKGRFTISRDNSKNTLYLQMRSLRAEDAAVYYCVTDVLRLPYSTGWSPGDFIYWGQGTLVTVSS
VL: DIQMTQSPSILYASVGDRVTITCRASQSVSSWLAWYQQKPGKVPKLLIYQASTLENGVPSRFSGSGSGTEFILTISSLQPDDFATYYCQHYNVLWTFGQGTKVEIK
in vitro neutralization [2]: > 625 ng/mL

B3: mAb #46 (antibody, V domains shown)
VH: QVQLQESGPGLVKPSETLSLTCTVSGGSINSYYWSWIRQSPGKGLEWIGYVFYSGITKYNPSLQSRVTISLDMGKNQFSLKLTSVNAADAAVYYCARNFPSYTPDWFFDLWGRGTLVTVSS
VL: EIVLTQSPGTLSLSPGERATLSCRASQSVSSDNLAWYQQKPGQPPRLLIYGASHRATGIPDRFSGSGSGTDFTLTISRLEPEDFAVYHCQQYGSSPLTFGGGTKVEIK
in vitro neutralization [1]: > 625 ng/mL
